This is an account of results in publication PMC8851480 (Proceedings of the National Academy of Sciences of the …, 2022).

For assay [1], the target named is N-terminal FLAG-tagged EBP50 (ERM-binding phosphoprotein 50) (human) (UniProt O14745). The assay can be described thus: RNA immunoprecipitation.
Assay [2] addresses ezrin, endogenous in HEK293T cells (human (endogenous in HEK293T), UniProt P15311 1-586). In words: RNA immunoprecipitation.

ezrin, endogenous in HEK293T cells, sequence (P15311 whole entry): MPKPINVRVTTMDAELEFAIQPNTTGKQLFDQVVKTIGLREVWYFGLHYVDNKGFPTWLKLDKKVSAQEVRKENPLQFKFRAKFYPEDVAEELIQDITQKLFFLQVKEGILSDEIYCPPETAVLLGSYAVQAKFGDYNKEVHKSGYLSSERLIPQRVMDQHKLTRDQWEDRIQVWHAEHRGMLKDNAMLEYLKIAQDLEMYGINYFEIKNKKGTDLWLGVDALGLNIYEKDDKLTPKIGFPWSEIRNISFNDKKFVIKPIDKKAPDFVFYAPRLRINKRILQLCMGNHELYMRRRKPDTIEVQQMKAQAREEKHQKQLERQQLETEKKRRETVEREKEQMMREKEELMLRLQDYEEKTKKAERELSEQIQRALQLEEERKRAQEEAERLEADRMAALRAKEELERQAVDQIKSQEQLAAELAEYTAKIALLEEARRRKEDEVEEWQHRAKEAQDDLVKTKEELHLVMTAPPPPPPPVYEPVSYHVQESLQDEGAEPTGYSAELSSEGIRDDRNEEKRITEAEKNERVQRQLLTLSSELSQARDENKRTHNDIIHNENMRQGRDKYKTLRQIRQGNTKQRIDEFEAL

As for “ezrin, endogenous in HEK293T cells (from UniProt P15311 1-586) (natural protein)”, in assay [1], the fold enrichment of EZR mRNA over control IgG (RIP-qRT-PCR) turned out to be 100 fold.

B1: Arg9-EBD peptide (28-amino-acid C terminus of the EBP50 EBD with an upstream 9-arginine sequence) (peptide)
peptide: RRRRRRRRRKERAHQKRSSKRAPQMDWSKKNELFSNL
In the case of B1, the “fold reduction of the EBP50-EZR mRNA RIP signal against control peptide” value in assay [2] was roughly 10 fold.
